Reference: the nanobody polyreactivity screen of Harvey et al. (2022)

Test: yeast display, Sf9 membrane polyspecificity reagent, FACS + sequencing; frameworks hold sequencing errors
How it was run: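 In a synthetic yeast display library (Saccharomyces cerevisiae BJ5465), nanobody expression was induced with galactose for 36–48 hours. FACS gates were set low and high (top ~1%) using anti-HA fluorescence for expression and streptavidin fluorescence for binding of the Sf9 membrane reagent. Each polyreactivity label is drawn from the gate of origin.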

| Sequence | polyreactivity (PSR sort gate) |
| --- | --- |
| QVQLVVSGGGLVQAGCTHRISCAPSGRISKLYAMGWSIPAPGKERELVAAISWRGGSTYYADSVKGRFTISRDNAKITVYLQLYSLKPEDTAVYFCNKAYPADDDYWGQGTQVSVSS | low polyreactivity |
| QVQLEESGGGLVQAGGSLRLSCAASGRIGAYAMGWYRQAPGKERELVAGITSNGASTYYADSVKGRFTISRDNAKNTVYLQMNSLKPEDTAVYYCAARYRFQRGGYYYWGQGTQVTVSS | high polyreactivity |
| QVQLVESGGGLVQAGGSLRLSCAASGRIFGYYAMGWYRLAPGKERELVAAITSGGRTTYADSVKGRFTISRDNAKNTVYVQMNSLKPEDTAVYYCAKEYPRYSSPYDYWGQGTQVTVSS | low polyreactivity |
| QVQLEESGGGLVQAGGRLRLSCAASGSTFDPNTMGWYRQAPGKERELVATITSVDSTNYADSVKGRFTISRDNAKNTVYLQMNSLKPEDTAVYYCNAAYGGVFFYAYDYWGQGTQVTVSS | low polyreactivity |
| QVKLVESGGGLVQAGGSLRLTCAASGIIFSWYAMGWYRQAPGKERELVAAISWSGGRTYYADSVKGRFTISRDNAKNSFYLQMNSLKPEDTAVYYCAAERNLFSHWEARYFWGQGTQVTVSS | high polyreactivity |
| QVQLVESGGGLVQAGGSLRLSCAASGSIFYLYAMGWYRQAPGKERELVAAITSIGGSTYADSVKGRFTISRDNAKNTVYLQMYSLKPEDTAVYYCNTDEYPLTVQVQYYYWGQGTQVTVSS | low polyreactivity |
| QVQLVESGGGLVQAGGSLRLSCAASGSTFDFNVMGWYRQAPGKERELVAAISSGSSTYYADSVKGRFTISRDNAKNTVYLQMNSLKPEDTAVYYCARRYQLVRTRYYYWGQGTQVTVSS | high polyreactivity |
| QFQLVESGGGLVQAGGSLRLSCAASGFTIGPYTMAWYRQAPGKERELVAAISYSGASTYYADSVKGRFTISRDNAKNTVYLQMNSLKPEDTAVYYCNTVYRFTRARYPYDYWGQGTQVTVSS | high polyreactivity |
| QVQLVESGGGLVQAGGSLRLSCAASGQTIAAYVMGWYRQAPGKERELVARISRSGGSTYYADSVKGRFTISRDNAKNTVYLQMNSLKPEDTAVYYCAAARPYKTSLPGAPYDYWGQGTQVTVSS | low polyreactivity |
| QVQLVESGGGLVQAGGSLRLSCAASGRIFFPYDMGWYRQAPGKERELVAAITNSGGRTYYADSVKGRFTISRDNAKNTVYLQMNSLKPEDTAVYYCAARYGSGGDYWGQGTQVTVSS | low polyreactivity |
| QVQLVESAGGLVHAGGSLRLSCAASGNIFRWYAMGWYRQAPGKDRELVAAISSGGRTNYADSVKGRFTISRDNALNSVFLQMNSLKPEDTAVFYWYIVAGVTGRFYFWGQGTQVTVSS | low polyreactivity |
| QVQLVESGGGLVQAGGSLRLSCAASGRIFDYAMGWYRQAPGKERELVAAINSAGSTNYADSVKGRFTISRDNAKNTVYLQMNSLKPEDTAVYYCNTDYGSSYNYWGQGTQVTVSS | high polyreactivity |
| QVQLVESGGGLVQAGGSLRLICAASGSTLVANAMGGYRQAPGKERELVAAISSGGITYYADSVKGRFTISRDNAKNTVYLQMNSLKPEDTAVYYCAKRGQGFQFGRDYWGQGTQVTVSS | low polyreactivity |
| QVQLVESGGGLVQAGGSLRLSCAASGFTFVYKDMGWYRQAPGKEREFVAAISSGGSTYYADSVKGRFTISRDNAKNTVYLQMNSLKPEDTAVYYCARRNPGPKHARYGYWGQGTQVNVSS | high polyreactivity |
| QVQLVESGGGLVQAGGSLRLSCAASGLIFPYNAMGWYRQAPGKERELVAAIDTRGSSTYYADSVKGRFTISRDNAKNTVYLQMNSLKPEDTAVYYCAADYRVQLRKEYDYWGQGTQVTVSS | high polyreactivity |
| QVQLVESGGGLVQAGGSLRLSCAASGSTLYGYVMGWYRQAPGKERELVADITWSGGSTYYADSVKGRFIISRDNAKNTVYLQMNSLKPEDTAVYYCNADRYGIYYYSRLPFDYWGQGTQVTVSS | low polyreactivity |
| QVQLVESGGGLVQAGGSLRLSCAATGYIGGNAMGWYRQAPWKERELVATLSRSGGSTYYADSVKGRFTISRDNAKNTVYLQMNSLKPEDSAVYYCAAVSYGNYHWGMYYWGQGTQVTVSS | low polyreactivity |
